According to patent US20140017168A1:

What was measured:
[1] = molecular target: somatostatin receptors on AR42J cells (rat); test: apparent IC50, competition with 111In(DTPA-octreotide) on AR42J cells, 3 h at RT
[2] = molecular target: receptor for bombesin analogues (target not named where the EC50 values are printed) (UniProt P30550); test: assay and target not described at this place
[3] = molecular target: gastrin-releasing peptide receptor on PC-3 cells (UniProt P30550); test: competition with 125I-BBN on PC-3 cells, inhibitor 250 to 2 nM
Chain of gastrin-releasing peptide receptor on PC-3 cells (P30550 whole entry): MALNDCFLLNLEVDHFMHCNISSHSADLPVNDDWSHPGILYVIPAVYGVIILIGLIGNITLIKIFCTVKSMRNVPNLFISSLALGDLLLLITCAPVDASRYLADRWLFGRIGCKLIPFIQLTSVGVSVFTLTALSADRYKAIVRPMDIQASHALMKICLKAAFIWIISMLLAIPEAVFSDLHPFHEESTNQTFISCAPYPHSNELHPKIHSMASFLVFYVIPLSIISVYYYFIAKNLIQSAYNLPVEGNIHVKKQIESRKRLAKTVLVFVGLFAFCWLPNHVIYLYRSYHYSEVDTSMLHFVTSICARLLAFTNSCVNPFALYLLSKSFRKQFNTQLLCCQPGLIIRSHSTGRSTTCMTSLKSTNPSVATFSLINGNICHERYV

Chain of somatostatin receptors on AR42J cells (rat) (P30680 whole entry): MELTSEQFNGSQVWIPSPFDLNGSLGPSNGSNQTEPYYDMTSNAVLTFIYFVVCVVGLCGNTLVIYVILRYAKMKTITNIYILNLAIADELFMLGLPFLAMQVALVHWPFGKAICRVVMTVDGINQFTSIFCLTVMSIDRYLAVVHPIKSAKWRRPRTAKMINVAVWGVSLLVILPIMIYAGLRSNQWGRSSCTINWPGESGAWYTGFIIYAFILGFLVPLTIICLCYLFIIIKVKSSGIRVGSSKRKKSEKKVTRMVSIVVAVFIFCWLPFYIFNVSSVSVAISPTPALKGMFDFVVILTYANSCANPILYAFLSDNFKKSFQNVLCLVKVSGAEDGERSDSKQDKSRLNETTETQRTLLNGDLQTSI
Chain of receptor for bombesin analogues (target not named where the EC50 values are printed) (P30550 whole entry): as the sequence (P30550 whole entry) above

| IC50 [1] | Substance | further results |
| --- | --- | --- |
| 3.6 nM | Al^19F(IMP466), IMP466 = NOTA-D-Phe-Cys-Phe-D-Trp-Lys-Thr-Cys-Throl (peptide) | – |
| 13 nM | ^69Ga(IMP466), IMP466 = NOTA-D-Phe-Cys-Phe-D-Trp-Lys-Thr-Cys-Throl (peptide) | – |
| 6.3 nM | ^115In(DTPA-octreotide) (peptide) | – |
| – | ^125I-Bombesin (Perkin-Elmer) (peptide) | EC50 [2]: 59 nM |
| – | commercially available BBN peptide (BBN positive control) | IC50 [3]: 24.4 nM |
